Patent publication US20070031445A1 (BOARD OF REGENTS OF THE UNIVERSITY OF NEBRASKA, published 2007)
Where no end group is shown, it is not given here. [ ]: non-standard residue; d: D form.

Key:
[1] = target: T1, C5a receptor (C5aR) expressed on the surface of human PMNs (human, UniProt P21730 1-350); experiment: cell-based or functional assay
T1 sequence (looked up): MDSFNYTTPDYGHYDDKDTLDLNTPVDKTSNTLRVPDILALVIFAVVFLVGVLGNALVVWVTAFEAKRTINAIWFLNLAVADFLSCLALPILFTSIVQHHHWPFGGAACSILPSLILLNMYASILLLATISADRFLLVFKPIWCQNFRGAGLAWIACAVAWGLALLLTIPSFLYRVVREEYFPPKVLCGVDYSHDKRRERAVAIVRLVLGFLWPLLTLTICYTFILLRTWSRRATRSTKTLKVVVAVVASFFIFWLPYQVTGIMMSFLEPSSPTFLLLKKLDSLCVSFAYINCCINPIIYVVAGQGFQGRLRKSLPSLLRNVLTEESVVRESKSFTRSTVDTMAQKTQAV

[2] = target: T1, C5a receptor (C5aR) expressed on the …; experiment: competition with 125I-C5a on intact human PMNs
Description: Statistical analysis of the values obtained from pharmacologic assays was performed using one-way analysis of variance (ANOVA).

[3] = target: T1, C5a receptor (C5aR) expressed on the …; experiment: competition with 125I-C5a on intact human PMNs (column headed EC50; 50% inhibition of 125I-C5a binding)
[4] = target: T1, C5a receptor (C5aR) expressed on the …; experiment: cell-based or functional assay; remark: listed apart in the source

B1: IPQSLDSWWTSLYSFKPMPLaR (HBsAg CTL epitope attached directly to N-terminus of the C5a agonist) (peptide)
peptide: IPQSLDSWWTSLYSFKPMPL[dA]R
notes: Synthetic peptide; also called C5a-active construct without linker
- EC50, MPO release from human PMNs [1]: 1.58 µM
- pD2, MPO release from human PMNs [1]: 5.8 -log EC50 (M)
- pD2 (-log IC50 (M)) [2]: 5.43 -log IC50 (M)
- IC50 [3]: 3.69 µM
- EC50, smooth muscle contraction of human umbilical artery [4]: 0.21 µM
- pD2, smooth muscle contraction of human umbilical artery [4]: 6.68 -log EC50 (M)

B2: natural C5a (ligand, UniProt P01031 678-751, looked up)
chain: TLQKKIEEIAAKYKHSVVKKCCYDGACVNNDETCEQRAARISLGPRCIKAFTECCVVASQLRANISHKDMQLGR
modifications: 125I label on the tracer form used in the competition assay
notes: C5a is only a fragment of it
- EC50, MPO release from human PMNs [1]: 0.003 µM
- pD2 (-log IC50 (M)) [2]: 9.43 -log IC50 (M)
- IC50 [3]: 0.0004 µM
- EC50, smooth muscle contraction of human umbilical artery [4]: 0.002 µM

Binder: YSFKPMPL[dA]RRRIPQSLDSWWTSL (Synthetic peptide) [YSFKPMPLa[…] (C5a-inactive construct, C-terminus of agonist blocked by the HBsAg CTL epitope)]
- EC50, MPO release from human PMNs [1]: > 1000 µM
- pD2 (-log IC50 (M)) [2]: 3.33 -log IC50 (M)
- IC50 [3]: 465 µM
- EC50, smooth muscle contraction of human umbilical artery [4]: 39.4 µM
- pD2, smooth muscle contraction of human umbilical artery [4]: 4.41 -log EC50 (M)

Binder: IPQSLDSWWTSLRRYSFKPMPL[dA]RG (Synthetic peptide)
- EC50, MPO release from human PMNs [1]: 2.56 µM
- pD2, MPO release from human PMNs [1]: 5.59 -log EC50 (M)
- pD2 (-log IC50 (M)) [2]: 4.77 -log IC50 (M)
- IC50 [3]: 17 µM
- EC50, smooth muscle contraction of human umbilical artery [4]: 6.78 µM
- pD2, smooth muscle contraction of human umbilical artery [4]: 5.17 -log EC50 (M)

B3: IPQSLDSWWTSLRVRRYSFKPMPLaR (RVRR furin-sensitive-linked C5a-active construct) (peptide)
peptide: IPQSLDSWWTSLRVRRYSFKPMPL[dA]R
notes: Synthetic peptide; also called RVRR-containing construct
- EC50, MPO release from human PMNs [1]: 2.15 µM
- pD2, MPO release from human PMNs [1]: 5.61 -log EC50 (M)
- pD2 (-log IC50 (M)) [2]: 6.28 -log IC50 (M)
- IC50 [3]: 0.529 µM
- EC50, smooth muscle contraction of human umbilical artery [4]: 0.18 µM
- pD2, smooth muscle contraction of human umbilical artery [4]: 6.67 -log EC50 (M)

B4: C5a C-terminal decapeptide agonist analog YSFKPMPLaR (peptide)
peptide: YSFKPMPL[dA]R
notes: Synthetic peptide; also called C5a agonist; peptide (2)
- pD2 (-log IC50 (M)) [2]: 5.63 -log IC50 (M)
- IC50 [3]: 2.34 µM
- EC50, smooth muscle contraction of human umbilical artery [4]: 0.01 µM

B5: IPQSLDSWWTSLRRYSFKPMPLaR (double-Arg-linked C5a-active construct) (peptide)
peptide: IPQSLDSWWTSLRRYSFKPMPL[dA]R
notes: Synthetic peptide; also called RR-containing construct
- EC50, MPO release from human PMNs [1]: 0.54 µM
- pD2, MPO release from human PMNs [1]: 6.27 -log EC50 (M)
- pD2 (-log IC50 (M)) [2]: 6.38 -log IC50 (M)
- IC50 [3]: 0.416 µM
- EC50, smooth muscle contraction of human umbilical artery [4]: 0.161 µM
- pD2, smooth muscle contraction of human umbilical artery [4]: 6.79 -log EC50 (M)
